B1: ZNF263 (parent)
chain: QPKKLHLCPLCGKNFSNNSNLIRH

Variants of: B1
Assay: protein stability index of a GFP-peptide fusion (GPS, HEK-293T) (PSI 1-6); higher = more stable
Conditions: c terminus: a fixed tail appended
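Note: lentivirally expressed fusions sorted by FACS into six bins by GFP to DsRed ratio, PSI derived from sequencing read proportions per bin multiplied by bin number.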

| Variant | protein stability index |
| --- | --- |
| QPKKLHLCPLDGKNFSNNSNLIRH | 3.58 |
| QPKKLHLCPLFGKNFSNNSNLIRH | 1.87 |
| QPKKLHLCPLEGKNFSNNSNLIRH | 3.18 |
| QPKKLHLCPLGGKNFSNNSNLIRH | 2.56 |
| QPKKLHLCPLAGKNFSNNSNLIRH | 3.13 |
| MPKKLHLCPLCGKNFSNNSNLIRH | 2.6 |
| KPKKLHLCPLCGKNFSNNSNLIRH | 2.64 |
| PPKKLHLCPLCGKNFSNNSNLIRH | 2.43 |
| NPKKLHLCPLCGKNFSNNSNLIRH | 2.83 |
| WPKKLHLCPLCGKNFSNNSNLIRH | 2.26 |
| VPKKLHLCPLCGKNFSNNSNLIRH | 2.12 |
| TPKKLHLCPLCGKNFSNNSNLIRH | 2.5 |
| RPKKLHLCPLCGKNFSNNSNLIRH | 2.47 |
| YPKKLHLCPLCGKNFSNNSNLIRH | 2.23 |
| IPKKLHLCPLCGKNFSNNSNLIRH | 2.61 |
| SPKKLHLCPLCGKNFSNNSNLIRH | 2.39 |
| LPKKLHLCPLCGKNFSNNSNLIRH | 2.4 |
| QPKKLHLFPLCGKNFSNNSNLIRH | 2.05 |
| QPKKLHLIPLCGKNFSNNSNLIRH | 2.61 |
| QPKKLHLAPLCGKNFSNNSNLIRH | 2.83 |
| QPKKLHLGPLCGKNFSNNSNLIRH | 2.85 |
| QPKKLHLEPLCGKNFSNNSNLIRH | 3.1 |
| QPKKLHLPPLCGKNFSNNSNLIRH | 2.82 |
| QPKKLHLWPLCGKNFSNNSNLIRH | 1.97 |

| Variant | protein stability index |
| --- | --- |
| QPKKLHLQPLCGKNFSNNSNLIRH | 2.71 |
| QPKKLHLLPLCGKNFSNNSNLIRH | 1.97 |
| QPKKLHLNPLCGKNFSNNSNLIRH | 3 |
| QPKKLHLHPLCGKNFSNNSNLIRH | 2.38 |
| QPKKLHLSPLCGKNFSNNSNLIRH | 2.41 |
| QPKKLHLYPLCGKNFSNNSNLIRH | 1.82 |
| QPKKLHLVPLCGKNFSNNSNLIRH | 3.15 |
| QPKKLHLDPLCGKNFSNNSNLIRH | 2.4 |
| QPKKLHLMPLCGKNFSNNSNLIRH | 3.22 |
| QPKKLHLRPLCGKNFSNNSNLIRH | 2.56 |
| QPKKLHLTPLCGKNFSNNSNLIRH | 3.03 |
| QPKKLHLKPLCGKNFSNNSNLIRH | 2.46 |
| QPKKLHLCPVCGKNFSNNSNLIRH | 2.96 |
| QPKKLHLCPACGKNFSNNSNLIRH | 2.5 |
| QPKKLHLCPKCGKNFSNNSNLIRH | 3.44 |
| QPKKLHLCPYCGKNFSNNSNLIRH | 2.53 |
| QPKKLHLCPHCGKNFSNNSNLIRH | 3.56 |
| QPKKLHLCPFCGKNFSNNSNLIRH | 3.03 |
| QPKKLHLCPSCGKNFSNNSNLIRH | 4.12 |
| QPKKLHLCPICGKNFSNNSNLIRH | 2.83 |
| QPKKLHLCPDCGKNFSNNSNLIRH | 3.78 |
| QPKKLHLCPECGKNFSNNSNLIRH | 3.47 |
| QPKKLHLCPRCGKNFSNNSNLIRH | 3.32 |
| QPKKLHLCPNCGKNFSNNSNLIRH | 3.16 |

| Variant | protein stability index |
| --- | --- |
| QPKKLHLCPCCGKNFSNNSNLIRH | 4.03 |
| QPKKLHLCPMCGKNFSNNSNLIRH | 3.28 |
| QPKKLHLCPTCGKNFSNNSNLIRH | 2.84 |
| QPKKLHLCPPCGKNFSNNSNLIRH | 2.62 |
| QPKKLHLCPQCGKNFSNNSNLIRH | 2.91 |
| QPKKLHLCPWCGKNFSNNSNLIRH | 2.38 |
| QPKKLHLCPGCGKNFSNNSNLIRH | 2.87 |
| QPKKLHLCKLCGKNFSNNSNLIRH | 2.63 |
| QPKKLHLCDLCGKNFSNNSNLIRH | 2.56 |
| QPKKLHLCALCGKNFSNNSNLIRH | 2.43 |
| QPKKLHLCRLCGKNFSNNSNLIRH | 2.25 |
| QPKKLHLCELCGKNFSNNSNLIRH | 2.56 |
| QPKKLHLCCLCGKNFSNNSNLIRH | 2.3 |
| QPKKLHLCGLCGKNFSNNSNLIRH | 2.26 |
| QPKKLHLCYLCGKNFSNNSNLIRH | 2.61 |
| QPKKLHLCNLCGKNFSNNSNLIRH | 2.4 |
| QPKKLHLCFLCGKNFSNNSNLIRH | 1.93 |
| QPKKLHLCILCGKNFSNNSNLIRH | 1.89 |
| QPKKLHLCVLCGKNFSNNSNLIRH | 2.1 |
| QPKKLHLCTLCGKNFSNNSNLIRH | 2.66 |
| QPKKLHLCQLCGKNFSNNSNLIRH | 2.67 |
| QPKKLHLCSLCGKNFSNNSNLIRH | 2.52 |
| QPKKLHLCHLCGKNFSNNSNLIRH | 2.38 |
| QPKKLHLCMLCGKNFSNNSNLIRH | 2.31 |

| Variant | protein stability index |
| --- | --- |
| QPKKLHLCWLCGKNFSNNSNLIRH | 2.4 |
| QPKKLHLCLLCGKNFSNNSNLIRH | 2.21 |
| QEKKLHLCPLCGKNFSNNSNLIRH | 2.59 |
| QWKKLHLCPLCGKNFSNNSNLIRH | 2.14 |
| QDKKLHLCPLCGKNFSNNSNLIRH | 2.42 |
| QIKKLHLCPLCGKNFSNNSNLIRH | 2.43 |
| QAKKLHLCPLCGKNFSNNSNLIRH | 2.42 |
| QSKKLHLCPLCGKNFSNNSNLIRH | 2.53 |
| QVKKLHLCPLCGKNFSNNSNLIRH | 2.3 |
| QCKKLHLCPLCGKNFSNNSNLIRH | 2.13 |
| QTKKLHLCPLCGKNFSNNSNLIRH | 2.57 |
| QMKKLHLCPLCGKNFSNNSNLIRH | 2.27 |
| QQKKLHLCPLCGKNFSNNSNLIRH | 2.47 |
| QRKKLHLCPLCGKNFSNNSNLIRH | 2.06 |
| QYKKLHLCPLCGKNFSNNSNLIRH | 1.89 |
| QGKKLHLCPLCGKNFSNNSNLIRH | 2.22 |
| QFKKLHLCPLCGKNFSNNSNLIRH | 2.44 |
| QKKKLHLCPLCGKNFSNNSNLIRH | 2.17 |
| QLKKLHLCPLCGKNFSNNSNLIRH | 1.81 |
| QNKKLHLCPLCGKNFSNNSNLIRH | 2.31 |
| QHKKLHLCPLCGKNFSNNSNLIRH | 1.68 |
| QPRKLHLCPLCGKNFSNNSNLIRH | 2.06 |
| QPSKLHLCPLCGKNFSNNSNLIRH | 2.56 |
| QPCKLHLCPLCGKNFSNNSNLIRH | 2.32 |

| Variant | protein stability index |
| --- | --- |
| QPFKLHLCPLCGKNFSNNSNLIRH | 2.83 |
| QPQKLHLCPLCGKNFSNNSNLIRH | 2.52 |
| QPVKLHLCPLCGKNFSNNSNLIRH | 2.67 |
| QPYKLHLCPLCGKNFSNNSNLIRH | 2.05 |
| QPIKLHLCPLCGKNFSNNSNLIRH | 2.78 |
| QPLKLHLCPLCGKNFSNNSNLIRH | 2.63 |
| QPDKLHLCPLCGKNFSNNSNLIRH | 2.94 |
| QPEKLHLCPLCGKNFSNNSNLIRH | 2.8 |
| QPMKLHLCPLCGKNFSNNSNLIRH | 2.78 |
| QPHKLHLCPLCGKNFSNNSNLIRH | 2.82 |
| QPAKLHLCPLCGKNFSNNSNLIRH | 2.33 |
| QPTKLHLCPLCGKNFSNNSNLIRH | 2.17 |
| QPGKLHLCPLCGKNFSNNSNLIRH | 2.65 |
| QPPKLHLCPLCGKNFSNNSNLIRH | 2.62 |
| QPNKLHLCPLCGKNFSNNSNLIRH | 2.83 |
| QPWKLHLCPLCGKNFSNNSNLIRH | 1.93 |
| QPKKLHKCPLCGKNFSNNSNLIRH | 2.88 |
| QPKKLHICPLCGKNFSNNSNLIRH | 3.56 |
| QPKKLHYCPLCGKNFSNNSNLIRH | 3.02 |
| QPKKLHFCPLCGKNFSNNSNLIRH | 2.78 |
| QPKKLHECPLCGKNFSNNSNLIRH | 2.28 |
| QPKKLHTCPLCGKNFSNNSNLIRH | 2.74 |
| QPKKLHCCPLCGKNFSNNSNLIRH | 2.3 |
| QPKKLHACPLCGKNFSNNSNLIRH | 2.69 |

| Variant | protein stability index |
| --- | --- |
| QPKKLHQCPLCGKNFSNNSNLIRH | 2.85 |
| QPKKLHMCPLCGKNFSNNSNLIRH | 2.59 |
| QPKKLHSCPLCGKNFSNNSNLIRH | 2.1 |
| QPKKLHDCPLCGKNFSNNSNLIRH | 2.1 |
| QPKKLHGCPLCGKNFSNNSNLIRH | 2.08 |
| QPKKLHVCPLCGKNFSNNSNLIRH | 3.04 |
| QPKKLHRCPLCGKNFSNNSNLIRH | 2.72 |
| QPKKLHHCPLCGKNFSNNSNLIRH | 2.46 |
| QPKKLHWCPLCGKNFSNNSNLIRH | 2.38 |
| QPKKLHPCPLCGKNFSNNSNLIRH | 2.07 |
| QPKKLHNCPLCGKNFSNNSNLIRH | 2.18 |
| QPKKWHLCPLCGKNFSNNSNLIRH | 2.74 |
| QPKKYHLCPLCGKNFSNNSNLIRH | 2.18 |
| QPKKRHLCPLCGKNFSNNSNLIRH | 2.37 |
| QPKKIHLCPLCGKNFSNNSNLIRH | 2.64 |
| QPKKVHLCPLCGKNFSNNSNLIRH | 3.02 |
| QPKKHHLCPLCGKNFSNNSNLIRH | 2.64 |
| QPKKSHLCPLCGKNFSNNSNLIRH | 2.39 |
| QPKKKHLCPLCGKNFSNNSNLIRH | 2.67 |
| QPKKNHLCPLCGKNFSNNSNLIRH | 2.13 |
| QPKKEHLCPLCGKNFSNNSNLIRH | 2.64 |
| QPKKMHLCPLCGKNFSNNSNLIRH | 2.71 |
| QPKKFHLCPLCGKNFSNNSNLIRH | 1.81 |
| QPKKTHLCPLCGKNFSNNSNLIRH | 1.71 |

| Variant | protein stability index |
| --- | --- |
| QPKKGHLCPLCGKNFSNNSNLIRH | 2.54 |
| QPKKAHLCPLCGKNFSNNSNLIRH | 2.53 |
| QPKKPHLCPLCGKNFSNNSNLIRH | 2.09 |
| QPKKCHLCPLCGKNFSNNSNLIRH | 2.02 |
| QPKKQHLCPLCGKNFSNNSNLIRH | 2.54 |
| QPKKDHLCPLCGKNFSNNSNLIRH | 3.25 |
| QPKLLHLCPLCGKNFSNNSNLIRH | 2.97 |
| QPKALHLCPLCGKNFSNNSNLIRH | 2.19 |
| QPKSLHLCPLCGKNFSNNSNLIRH | 3.18 |
| QPKMLHLCPLCGKNFSNNSNLIRH | 2.53 |
| QPKQLHLCPLCGKNFSNNSNLIRH | 3.03 |
| QPKGLHLCPLCGKNFSNNSNLIRH | 2.63 |
| QPKHLHLCPLCGKNFSNNSNLIRH | 2.49 |
| QPKRLHLCPLCGKNFSNNSNLIRH | 1.88 |
| QPKYLHLCPLCGKNFSNNSNLIRH | 2.44 |
| QPKDLHLCPLCGKNFSNNSNLIRH | 3 |
| QPKTLHLCPLCGKNFSNNSNLIRH | 2.75 |
| QPKFLHLCPLCGKNFSNNSNLIRH | 2.17 |
| QPKVLHLCPLCGKNFSNNSNLIRH | 2.62 |
| QPKELHLCPLCGKNFSNNSNLIRH | 3.36 |
| QPKCLHLCPLCGKNFSNNSNLIRH | 2.53 |
| QPKILHLCPLCGKNFSNNSNLIRH | 2.85 |
| QPKPLHLCPLCGKNFSNNSNLIRH | 2.69 |
| QPKWLHLCPLCGKNFSNNSNLIRH | 2.47 |

| Variant | protein stability index |
| --- | --- |
| QPKNLHLCPLCGKNFSNNSNLIRH | 2.92 |
| QPKKLYLCPLCGKNFSNNSNLIRH | 2.88 |
| QPKKLQLCPLCGKNFSNNSNLIRH | 2.22 |
| QPKKLALCPLCGKNFSNNSNLIRH | 2.02 |
| QPKKLVLCPLCGKNFSNNSNLIRH | 2.12 |
| QPKKLDLCPLCGKNFSNNSNLIRH | 2.95 |
| QPKKLELCPLCGKNFSNNSNLIRH | 2.38 |
| QPKKLFLCPLCGKNFSNNSNLIRH | 2.44 |
| QPKKLTLCPLCGKNFSNNSNLIRH | 3.08 |
| QPKKLLLCPLCGKNFSNNSNLIRH | 2.19 |
| QPKKLNLCPLCGKNFSNNSNLIRH | 2.14 |
| QPKKLKLCPLCGKNFSNNSNLIRH | 2.81 |
| QPKKLGLCPLCGKNFSNNSNLIRH | 2.39 |
| QPKKLMLCPLCGKNFSNNSNLIRH | 2.24 |
| QPKKLRLCPLCGKNFSNNSNLIRH | 2.32 |
| QPKKLWLCPLCGKNFSNNSNLIRH | 2.05 |
| QPKKLSLCPLCGKNFSNNSNLIRH | 1.71 |
| QPKKLILCPLCGKNFSNNSNLIRH | 2.05 |
| QPKKLPLCPLCGKNFSNNSNLIRH | 2.11 |
| QPKKLCLCPLCGKNFSNNSNLIRH | 1.99 |
